PMC3093317 (Molecular Biology of the Cell, 2011)

How the values were obtained:
[1] = target: HA-tagged YadA-MA expressed in E. coli (Yersinia enterocolitica) (UniProt P0C2W0); experiment: SDS-PAGE of the SDS-stable oligomer with monomerization by boiling in urea
[2] = target: the molecule itself; experiment: as above

Molecule: HA-tagged YadA-MA expressed in E. coli (from UniProt P0C2W0 335-422) (domain or fragment)
- stoichiometry N [1]: 3

B1: HA-tagged YadA-MA-S417G, expressed in yeast (domain or fragment)
chain: FHQLDNRLDKLDTRVDKGLASSAALNSLFQPYGVGKVNFTAGVGGYRSSQALAIGSGYRVNESVALKAGVAYAGSSDVMYNAGFNIEW
- stoichiometry N [2]: 3
